# Test results from paper PMC6716841, “Modification of acetoacetyl-CoA reduction step in Ralstonia eutropha for biosynthesis of poly(3-hydroxybutyrate-co-3-hydroxyhexanoate) from structurally unrelated compounds” (Microbial Cell Factories, 2019).
# Residue numbers refer to the chain shown, from its start. Names and notes keep the numbering of the source.
# B1: PhaB1 (Cupriavidus necator H16) (protein)
# chain: MTQRIAYVTGGMGGIGTAICQRLAKDGFRVVAGCGPNSPRREKWLEQQKALGFDFIASEGNVADWDSTKTAFDKVKSEVGEVDVLINNAGITRDVVFRKMTRADWDAVIDTNLTSLFNVTKQVIDGMADRGWGRIVNISSVNGQKGQFGQTNYSTAKAGLHGFTMALAQEVATKGVTVNTVSPGYIATDMVKAIRQDVLDKIVATIPVKRLGLPEEIASICAWLSSEESGFSTGADFSLNGGLHMG
# B2: PhaB1 (Cupriavidus necator H16; Y185F) (protein)
# chain: B1 chain with Y185F
# B3: PhaB1 (Cupriavidus necator H16; N142V/Y185F) (protein)
# chain: B1 chain with N142V, Y185F
# B4: PhaB1 (Cupriavidus necator H16; N142V) (protein)
# chain: B1 chain with N142V
# Substrate: CC(=O)CC(=O)SCCNC(=O)CCNC(=O)[C@H](O)C(C)(C)COP(=O)(O)OP(=O)(O)OC[C@H]1O[C@@H](n2cnc3c(N)ncnc32)[C@H](O)[C@@H]1OP(=O)(O)O
# Assay: purified protein
# Format: biochemical, Cupriavidus necator
# Details: 200 μM NADPH, 1 to 20 μM acetoacetyl-CoA, 100 mM Tris-HCl pH 8.0, 30 °C
# [1] = substrate inhibition above 12 μM
Protein,Km [1] [µM],Vmax [1] [µmol/min/mg],kcat [1] [s⁻¹],kcat/Km [1] [M⁻¹ s⁻¹],Km [µM],Vmax [µmol/min/mg],kcat [s⁻¹],kcat/Km [M⁻¹ s⁻¹]
B1,1.99 ± 0.23,162,71.2 ± 2.7,3.58e+07 ± 4.4e+06,,,,
B2,,,,,86.2 ± 20.6,127,55.8 ± 7.6,650000 ± 180000
B3,,,,,109 ± 38,53.9,23.7 ± 3.7,220000 ± 80000
B4,,,,,58.5 ± 18.1,175,76.7 ± 2.7,1.31e+06 ± 470000
